Starred links: 1 amine or outer side, 2 acyl side, 3 side chain; linkers in the order of their positions; H or OH if unused. Positions of bridges follow the written chain, without caps; N, C: chain ends. Non-standard residues stand in square brackets, D forms with d. Groups on a side chain read outwards from the residue. Primed or numbered codes have the meaning given here. *: point of attachment. (2S,3S)beta‑Me‑Phe = C[C@@H](c1ccccc1)[C@H](N[*:1])C(=O)[*:2]; Ala(piperidin-4-yl) = O=C([C@H](CC1CCN([*:3])CC1)N[*:1])[*:2]; (2S,3S)βMePhe = C[C@@H](c1ccccc1)[C@H](N[*:1])C(=O)[*:2]; DOTA = O=C(O)CN1CCN(CC(=O)O)CCN(CC(=O)*)CCN(CC(=O)O)CC1; PipAla = piperidinyl-alanine residue (as named); Trp(5-F) = N[C@@H](Cc1c[nH]c2ccc(F)cc12)C(=O)O; PEG4′ = 4x 3-(2-aminoethoxy)propanoic acid; Pro(cis-4-F) = O=C(O)[C@@H]1C[C@H](F)CN1; γGlu = O=C(O)[C@H](CCC(=O)[*:2])N[*:1]; Ala(4-THP) = N[C@@H](CC1CCOCC1)C(=O)O; AEF = NCCOc1ccc(C[C@H](N)C(=O)O)cc1; Val(3-OH) = CC(C)(O)[C@H](N)C(=O)O; Hyp = O=C(O)[C@@H]1C[C@@H](O)CN1; 4Pal = N[C@@H](Cc1ccncc1)C(=O)O; aThr = C[C@H](O)[C@H](N)C(=O)O; Tle = CC(C)(C)[C@H](N)C(=O)O; hLeu = CC(C)CC[C@H](N)C(=O)O; Pip = O=C(O)[C@@H]1CCCCN1; Nle = CCCC[C@H](N)C(=O)O; Sar = CNCC(=O)O A value given as a limit tells only on which side of the number the result lay.

This is an account of results in US20250296959A1, “B7-H3 TARGETING PEPTIDES AND CONSTRUCTS THEREOF” (Mariana Oncology Inc., priority 2024, published 2025).

The target of assay [1] is T1, Biotinylated human 4Ig B7-H3 (human, UniProt Q5ZPR3 29-461, limits assumed, biotinylated (site not stated)).
T1 construct: Protein captured on the SA chip for SPR; also called 4lg-B7-H3; B7-H3 isoform 4Ig
T1 sequence: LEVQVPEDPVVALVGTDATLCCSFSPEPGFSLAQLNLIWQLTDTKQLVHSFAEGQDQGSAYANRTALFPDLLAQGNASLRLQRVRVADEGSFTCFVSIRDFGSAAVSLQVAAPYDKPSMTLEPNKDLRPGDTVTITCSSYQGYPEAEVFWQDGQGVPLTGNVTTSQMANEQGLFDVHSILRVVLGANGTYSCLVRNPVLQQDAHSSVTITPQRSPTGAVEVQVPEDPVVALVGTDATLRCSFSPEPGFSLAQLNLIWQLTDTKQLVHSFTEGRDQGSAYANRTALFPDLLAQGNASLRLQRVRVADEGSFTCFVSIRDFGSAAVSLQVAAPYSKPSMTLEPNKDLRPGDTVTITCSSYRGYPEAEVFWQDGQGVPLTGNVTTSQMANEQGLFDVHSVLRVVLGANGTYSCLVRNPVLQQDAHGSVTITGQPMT
Briefly: SPR 25C; C = 10<KD<=100 nM.

For assay [2], the target named is T1, Biotinylated human 4Ig B7-H3. Briefly: SPR 25C; C = 10<KD<=100 nM. This is another data set of the same source.
Assay [3] has the same target. The experiment in a line: SPR 25C; D = 100<KD<=300 nM.
Assay [4] shares this target. The experiment in a line: SPR 37C; D = 100<KD<=300 nM.
The target is the same in assay [5]. Briefly: SPR 25C; B = 1.0<KD<=10 nM.
For assay [6] the target is unchanged. The experiment in a line: SPR 37C; B = 1.0<KD<=10 nM.
For assay [7], the target named is Biotinylated human 4Ig B7-H3 (human) (UniProt Q5ZPR3). The experiment in a line: SPR 37C; C = 10<KD<=100 nM.
The target of assay [8] is 2Ig B7-H3 (UniProt Q5ZPR3). The experiment in a line: SPR, 37C. (In general: Surface plasmon resonance follows binding to a sensor surface in real time, without labels.)
Assay [9] deals with Biotinylated human 4Ig B7-H3 (human) (UniProt Q5ZPR3). The experiment in a line: SPR 37C; A = KD<=1.0 nM.
In assay [10] the target is T1, Biotinylated human 4Ig B7-H3. Briefly: SPR 25C; B = 1.0<KD<=10 nM. This is another data set of the same source.
Assay [11] addresses T2, 2Ig B7-H3 (UniProt Q5ZPR3-2 29-245, limits assumed).
T2 construct: also called 2lg-B7-H3; B7-H3 isoform 2Ig
T2 sequence (looked up): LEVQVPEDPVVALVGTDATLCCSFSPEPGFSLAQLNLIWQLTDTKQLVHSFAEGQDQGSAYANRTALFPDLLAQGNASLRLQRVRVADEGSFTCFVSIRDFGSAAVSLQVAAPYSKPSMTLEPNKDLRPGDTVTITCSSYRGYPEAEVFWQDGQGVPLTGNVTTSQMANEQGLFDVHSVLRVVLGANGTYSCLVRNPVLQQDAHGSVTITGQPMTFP
The experiment in a line: SPR, 37C.

Assay [12] addresses T1, Biotinylated human 4Ig B7-H3. The experiment in a line: SPR 37C; C = 10<KD<=100 nM.
The target in assay [13] is T2, 2Ig B7-H3. The experiment in a line: SPR, 25C.
Assay [14] has as its target B7-H3 on Calu-6 cells (human) (UniProt Q5ZPR3). The experiment in a line: 177Lu-labelled peptide on Calu-6 cells, % cell associated fraction; C = >50%.
The target in assay [15] is T1, Biotinylated human 4Ig B7-H3. Briefly: SPR 25C; A = KD<=1.0 nM.
Assay [16] shares this target. The experiment in a line: SPR 37C; A = KD<=1.0 nM.

B1: Cpd 267 (peptide)
peptide: Ac-[hLeu]YCIGK(DOTA)[4Pal]DVYC[Trp(5-F)]F[Hyp]-NH2
modifications: disulfide 3-11
As usually defined, the KD is the free concentration of one partner at which half of the binding sites on the other are occupied at equilibrium, for simple one-to-one binding. A high value points to lower affinity. Take B1: the KD in assay [1] was 10 to 100 nM.

B2: Cpd 269 (peptide)
peptide: Ac-[hLeu]YCIGK(DOTA)[4Pal]DVYC[Trp(5-F)]F[Pip]-NH2
modifications: disulfide 3-11
In the case of B2, the KD in assay [1] was 10 to 100 nM.

B3: Cpd 93 (peptide)
peptide: Ac-[Nle]YCVGKYDVYCWF[aThr][dK](DOTA)-NH2
modifications: disulfide 3-11
The molecule B3 showed a dissociation constant (KD) in assay [2] of 10 to 100 nM.

B4: Cpd 1 (peptide)
peptide: Ac-MYCVGKYDVYCWF-NH2
modifications: disulfide 3-11
SMILES: CSCC[C@H](NC(C)=O)C(=O)N[C@@H](Cc1ccc(O)cc1)C(=O)N[C@H]1CSSC[C@@H](C(=O)N[C@@H](Cc2c[nH]c3ccccc23)C(=O)N[C@@H](Cc2ccccc2)C(N)=O)NC(=O)[C@H](Cc2ccc(O)cc2)NC(=O)[C@H](C(C)C)NC(=O)[C@H](CC(=O)O)NC(=O)[C@H](Cc2ccc(O)cc2)NC(=O)[C@H](CCCCN)NC(=O)CNC(=O)[C@H](C(C)C)NC1=O
As for B4, the KD in assay [3] and in [4] was 100 to 300 nM in each case.

B5: Cpd 28 (peptide)
peptide: Ac-[Nle]YCVGKYDVYCWFT[dK](DOTA)-OH
modifications: disulfide 3-11
SMILES: CCCC[C@H](NC(C)=O)C(=O)N[C@@H](Cc1ccc(O)cc1)C(=O)N[C@H]1CSSC[C@@H](C(=O)N[C@@H](Cc2c[nH]c3ccccc23)C(=O)N[C@@H](Cc2ccccc2)C(=O)N[C@H](C(=O)N[C@H](CCCCNC(=O)CN2CCN(CC(=O)O)CCN(CC(=O)O)CCN(CC(=O)O)CC2)C(=O)O)[C@@H](C)O)NC(=O)[C@H](Cc2ccc(O)cc2)NC(=O)[C@H](C(C)C)NC(=O)[C@H](CC(=O)O)NC(=O)[C@H](Cc2ccc(O)cc2)NC(=O)[C@H](CCCCN)NC(=O)CNC(=O)[C@H](C(C)C)NC1=O
Regarding B5, the KD in [5] and in [6] was 1 to 10 nM throughout.

B6: Cpd 322 (peptide)
peptide: Ac-[hLeu]YC[Tle]GK(DOTA)[Ala(4-THP)]DVYC[Trp(5-F)]F[Val(3-OH)]-OH
modifications: disulfide 3-11 (inferred)
Molecule B6 returned a dissociation constant KD in assay [7] of 10 to 100 nM.

B7: Cpd 523 (peptide)
peptide: Ac-[hLeu]YC[Tle]G[PipAla]K([PEG4′-DPTA])DVYC[Trp(5-F)][(2S,3S)beta‑Me‑Phe][Val(3-OH)][dA]-OH
modifications: disulfide 3-11 (inferred)
Broadly, the Kd is the free concentration of one partner at which half of the binding sites on the other are occupied at equilibrium, for simple one-to-one binding. Take B7: the equilibrium dissociation constant (Kd) with 2Ig B7-H3 [8] turned out to be 520 nM. In assay [9], this molecule registered a KD of less than 1 nM.

B8: Cpd 268 (peptide)
peptide: Ac-[hLeu]YCIGK(DOTA)[4Pal]DVYC[Trp(5-F)]F[Pro(cis-4-F)]-NH2
modifications: disulfide 3-11
Molecule B8 had a KD in [10] of 1 to 10 nM. Besides, the Kd in the assay with 2Ig B7-H3 [11] was determined as 7000 nM.

B9: Cpd 26 (peptide)
peptide: Ac-[Nle]YCV[Sar]KYDVYCWF-NH2
modifications: disulfide 3-11
B9: the equilibrium dissociation constant (KD) in assay [2] and in assay [12] was 10 to 100 nM in each case.

B10: Cpd 301 (peptide)
peptide: Ac-[hLeu]YCVG[Ala(piperidin-4-yl)][AEF](DOTA)DVYC[Trp(5-F)]FP-NH2
modifications: disulfide 3-11
SMILES: CC(=O)N[C@@H](CCC(C)C)C(=O)N[C@@H](Cc1ccc(O)cc1)C(=O)N[C@H]1CSSC[C@@H](C(=O)N[C@@H](Cc2c[nH]c3ccc(F)cc23)C(=O)N[C@@H](Cc2ccccc2)C(=O)N2CCC[C@H]2C(N)=O)NC(=O)[C@H](Cc2ccc(O)cc2)NC(=O)[C@H](C(C)C)NC(=O)[C@H](CC(=O)O)NC(=O)[C@H](Cc2ccc(OCCNC(=O)CN3CCN(CC(=O)O)CCN(CC(=O)O)CCN(CC(=O)O)CC3)cc2)NC(=O)[C@H](CC2CCNCC2)NC(=O)CNC(=O)[C@H](C(C)C)NC1=O
In the assay with 2Ig B7-H3 [13], B10 returned a dissociation constant Kd of 860 nM.

B11: Cpd 27 (peptide)
peptide: Ac-[Nle]YCVGKYDVYCWFT[dK](DOTA)-NH2
modifications: disulfide 3-11
As to B11, the equilibrium dissociation constant (KD) in assay [5] and in [6] was 1 to 10 nM each time.

B12: Cpd 36 (peptide)
peptide: Ac-[Nle]YCVGKYDVYCWF[γGlu][γGlu]-NH2
modifications: disulfide 3-11
SMILES: CCCC[C@H](NC(C)=O)C(=O)N[C@@H](Cc1ccc(O)cc1)C(=O)N[C@H]1CSSC[C@@H](C(=O)N[C@@H](Cc2c[nH]c3ccccc23)C(=O)N[C@@H](Cc2ccccc2)C(=O)N[C@@H](CCC(=O)N[C@@H](CCC(N)=O)C(=O)O)C(=O)O)NC(=O)[C@H](Cc2ccc(O)cc2)NC(=O)[C@H](C(C)C)NC(=O)[C@H](CC(=O)O)NC(=O)[C@H](Cc2ccc(O)cc2)NC(=O)[C@H](CCCCN)NC(=O)CNC(=O)[C@H](C(C)C)NC1=O
Regarding B12, in assay [4], the equilibrium dissociation constant (KD) was in the range of 100 to 300 nM.

B13: Cpd 494 (peptide)
peptide: Ac-[hLeu]YC[Tle]G[PipAla]([PEG4′-DOTA])[Ala(4-THP)]DVYC[Trp(5-F)][(2S,3S)βMePhe][Val(3-OH)][dA]-OH
modifications: disulfide 3-11 (inferred)
In the case of B13, in the assay with 2Ig B7-H3 [8], the dissociation constant (Kd) amounted to 370 nM. In assay [9], this molecule came in with a KD of less than 1 nM. The % cell associated fraction in assay [14] is more than 50%.

B14: Cpd 295 (peptide)
peptide: Ac-[hLeu]YCVGK[AEF](DOTA)DVYC[Trp(5-F)]FT-NH2
modifications: disulfide 3-11
SMILES: CC(=O)N[C@@H](CCC(C)C)C(=O)N[C@@H](Cc1ccc(O)cc1)C(=O)N[C@H]1CSSC[C@@H](C(=O)N[C@@H](Cc2c[nH]c3ccc(F)cc23)C(=O)N[C@@H](Cc2ccccc2)C(=O)N[C@H](C(N)=O)[C@@H](C)O)NC(=O)[C@H](Cc2ccc(O)cc2)NC(=O)[C@H](C(C)C)NC(=O)[C@H](CC(=O)O)NC(=O)[C@H](Cc2ccc(OCCNC(=O)CN3CCN(CC(=O)O)CCN(CC(=O)O)CCN(CC(=O)O)CC3)cc2)NC(=O)[C@H](CCCCN)NC(=O)CNC(=O)[C@H](C(C)C)NC1=O
Turning to B14, the KD in assay [15] and in assay [16] was not above 1 nM throughout.
